We go through 1 molecule from CN116751285A (UNIV HEBEI NORMAL, dated 2023).

For this test, the target named is BSA (UniProt P02769 25-607). The test is described as follows: indirect ELISA, protein coated, anti-6xHis detection, OD450. A general note: An ELISA detects its analyte on a solid surface through an enzyme-linked reagent.
Chain of BSA (P02769 25-607 limits assumed): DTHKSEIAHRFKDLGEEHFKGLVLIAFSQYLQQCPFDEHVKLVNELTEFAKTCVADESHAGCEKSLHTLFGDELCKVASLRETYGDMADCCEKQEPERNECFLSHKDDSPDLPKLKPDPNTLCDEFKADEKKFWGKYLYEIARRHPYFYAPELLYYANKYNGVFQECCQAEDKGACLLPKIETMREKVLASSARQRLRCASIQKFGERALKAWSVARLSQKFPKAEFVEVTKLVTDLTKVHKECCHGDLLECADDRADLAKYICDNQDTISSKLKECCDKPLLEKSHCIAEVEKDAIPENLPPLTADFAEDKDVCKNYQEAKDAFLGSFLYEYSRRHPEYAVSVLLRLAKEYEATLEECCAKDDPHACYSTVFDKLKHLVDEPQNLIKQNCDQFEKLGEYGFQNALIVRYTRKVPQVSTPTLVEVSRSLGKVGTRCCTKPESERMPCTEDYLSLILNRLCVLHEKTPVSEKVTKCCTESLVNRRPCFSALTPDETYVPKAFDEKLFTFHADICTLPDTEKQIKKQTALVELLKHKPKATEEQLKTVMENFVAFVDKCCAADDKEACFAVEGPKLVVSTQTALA

B1: VHH-A35R纳米抗体 (VHH)
VHH: AVQLVESGGGLAQTGGSLRLSCAASGRAFRDYAMAWFRQAPGKEREFVAAVSKTGYAIRYEDSVKGRFTISRDNAKNTVSLQMASLKVEDTAVYYCAADRTHRLGYSLRVDPLGYDDWGQGTQVTVSS
Consider B1, for which the binding result is recorded as “no binding”.
